In patent US20090148437A1:
Numbering of substitutions follows the chain as printed. “And” between values parts separate entries of the source, which are not always exact repeats. Equal values may be shown once. One block for each binder: values may come before it.

Experiments:
TNFR1 on MRC-5 cells = TNFR1 on MRC-5 cells (UniProt P19438); experiment: cell-based or functional assay
[1] = molecular target: IL-R1-Fc (a fusion of IL-1RI and Fc) (UniProt P14778); experiment: phage-displayed dAb: trypsin 10 µg/ml overnight 37 C, then biopanning on 1 nM IL-R1-Fc
[2] = molecular target: IL-R1-Fc (a fusion of IL-1RI and Fc) (UniProt P14778); experiment: phage-displayed dAb: trypsin 100 µg/ml overnight room temp, then biopanning on 1 nM IL-R1-Fc
[3] = molecular target: IL-R1-Fc (a fusion of IL-1RI and Fc) (UniProt P14778); experiment: phage-displayed dAb: no trypsin 1 hr room temp, biopanning on 1 nM IL-R1-Fc
[4] = molecular target: IL-R1-Fc (a fusion of IL-1RI and Fc) (UniProt P14778); experiment: phage-displayed dAb: no trypsin overnight room temp, biopanning on 1 nM IL-R1-Fc
[5] = molecular target: IL-R1-Fc (a fusion of IL-1RI and Fc) (UniProt P14778); experiment: phage-displayed dAb: no trypsin overnight 37 C, biopanning on 1 nM IL-R1-Fc
[6] = molecular target: IL-R1-Fc (a fusion of IL-1RI and Fc) (UniProt P14778); experiment: phage-displayed dAb: trypsin 100 µg/ml 1 hr room temp, then biopanning on 1 nM IL-R1-Fc
IL-1R1 = IL-1R1 (UniProt P14778); experiment: Receptor Binding Assay, inhibition of IL-1 binding to IL-R1 (column head says nM, cell says pM)
[7] = molecular target: IL-R1-Fc (a fusion of IL-1RI and Fc) (UniProt P14778); experiment: phage-displayed dAb: trypsin 100 µg/ml overnight 37 C, then biopanning on 1 nM IL-R1-Fc
[8] = molecular target: IL-R1-Fc (a fusion of IL-1RI and Fc) (UniProt P14778); experiment: phage-displayed dAb: trypsin 10 µg/ml overnight room temp, then biopanning on 1 nM IL-R1-Fc
[9] = molecular target: IL-R1-Fc (a fusion of IL-1RI and Fc) (UniProt P14778); experiment: phage-displayed dAb: trypsin 10 µg/ml 1 hr room temp, then biopanning on 1 nM IL-R1-Fc
[10] = molecular target: human VEGF (human vascular endothelial growth factor) (human) (UniProt P15692); experiment: phage-displayed dAb, expt 2 (input 10^9): no trypsin 2 hr 37 C 250 rpm, capture on biotinylated rhVEGF
[11] = molecular target: human VEGF (human vascular endothelial growth factor) (human) (UniProt P15692); experiment: BIAcore kinetics
[12] = molecular target: human VEGF (human vascular endothelial growth factor) (human) (UniProt P15692); experiment: phage-displayed dAb, expt 2 (input 10^9): trypsin 100 µg/ml 2 hr 37 C 250 rpm, then capture on biotinylated rhVEGF
[13] = molecular target: human VEGF (human vascular endothelial growth factor) (human) (UniProt P15692); experiment: phage-displayed dAb, expt 1 (input 10^10): trypsin 10 µg/ml 1 hr room temp, then capture on 50 nM biotinylated rhVEGF
[14] = molecular target: human VEGF (human vascular endothelial growth factor) (human) (UniProt P15692); experiment: phage-displayed dAb, expt 1 (input 10^10): no trypsin (0 µg/ml) 1 hr room temp, capture on 50 nM biotinylated rhVEGF
[15] = molecular target: human VEGF (human vascular endothelial growth factor) (human) (UniProt P15692); experiment: phage-displayed dAb, expt 1 (input 10^10): trypsin 100 µg/ml 1 hr room temp, then capture on 50 nM biotinylated rhVEGF + streptavidin beads
[16] = molecular target: human VEGF (human vascular endothelial growth factor) (human) (UniProt P15692); experiment: monoclonal phage ELISA on biotinylated hVEGF (neutravidin plate) after 100 ug/ml trypsin 1 h 37 C
[17] = molecular target: human VEGF (human vascular endothelial growth factor) (human) (UniProt P15692); experiment: phage-displayed dAb, expt 2 (input 10^9): trypsin 100 µg/ml 1 hr 37 C 250 rpm, then capture on biotinylated rhVEGF
[18] = molecular target: human VEGF (human vascular endothelial growth factor) (human) (UniProt P15692); experiment: receptor binding assay (inhibition of VEGF binding to VEGFR2)

Sequence of human VEGF (human vascular endothelial growth factor) (human) (P15692 other isoform, or with tags, fused parts or gaps limits assumed): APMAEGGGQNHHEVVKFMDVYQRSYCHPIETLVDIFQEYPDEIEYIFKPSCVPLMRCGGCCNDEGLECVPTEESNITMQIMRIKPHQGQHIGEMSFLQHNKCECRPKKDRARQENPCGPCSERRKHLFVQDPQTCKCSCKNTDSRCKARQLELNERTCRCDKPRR
Sequence of IL-R1-Fc (a fusion of IL-1RI and Fc) (P14778 18-336 limits assumed): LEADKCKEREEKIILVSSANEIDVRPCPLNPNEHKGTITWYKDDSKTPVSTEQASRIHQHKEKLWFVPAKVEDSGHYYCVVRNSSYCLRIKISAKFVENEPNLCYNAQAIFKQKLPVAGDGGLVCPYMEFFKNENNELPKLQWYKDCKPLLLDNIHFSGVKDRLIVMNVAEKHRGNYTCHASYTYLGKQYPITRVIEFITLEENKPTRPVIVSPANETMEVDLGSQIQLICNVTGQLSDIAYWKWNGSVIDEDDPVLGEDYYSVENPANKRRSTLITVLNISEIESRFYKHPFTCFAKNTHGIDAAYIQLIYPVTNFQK
Sequence of TNFR1 on MRC-5 cells (P19438 30-455 limits assumed): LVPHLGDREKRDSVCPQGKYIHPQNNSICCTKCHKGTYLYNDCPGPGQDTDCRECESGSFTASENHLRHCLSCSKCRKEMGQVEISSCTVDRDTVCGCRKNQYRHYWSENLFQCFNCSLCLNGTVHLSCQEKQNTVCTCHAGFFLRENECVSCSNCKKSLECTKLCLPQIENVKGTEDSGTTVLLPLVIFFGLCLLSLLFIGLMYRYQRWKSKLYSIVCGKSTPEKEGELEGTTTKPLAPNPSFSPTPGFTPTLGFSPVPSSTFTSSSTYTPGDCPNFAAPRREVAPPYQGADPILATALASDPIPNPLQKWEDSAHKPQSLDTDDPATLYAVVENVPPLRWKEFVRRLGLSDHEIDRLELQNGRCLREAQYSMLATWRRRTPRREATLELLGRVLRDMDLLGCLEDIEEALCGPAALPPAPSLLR
Sequence of IL-1R1 (P14778 18-332 limits assumed): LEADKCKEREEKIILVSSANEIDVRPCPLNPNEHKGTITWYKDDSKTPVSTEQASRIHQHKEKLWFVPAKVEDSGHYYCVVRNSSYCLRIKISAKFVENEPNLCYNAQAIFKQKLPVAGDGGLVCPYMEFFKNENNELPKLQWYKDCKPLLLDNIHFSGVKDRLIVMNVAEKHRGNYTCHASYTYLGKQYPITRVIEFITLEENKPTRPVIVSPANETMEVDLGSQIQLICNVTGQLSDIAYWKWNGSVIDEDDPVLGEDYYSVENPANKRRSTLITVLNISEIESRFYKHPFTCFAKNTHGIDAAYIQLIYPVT

ND50, MRC-5 cell-based assay (IL-8 release) (TNFR1 on MRC-5 cells): 1.98 nM and 1.71 nM and 1.46 nM | ND50, MRC-5 cell-based assay (IL-8 release); sample DOM1h-131-511 (230307CE) (TNFR1 on MRC-5 cells): 1.89 nM
B1: DOM1h-131-511 (protein)
VH: EVQLLESGGGLVQPGGSLRLSCAASGFTFAHETMVWVRQAPGKGLEWVSHIPPVGQDPFYADSVKGRFTISRDNSKNTLYLQMNSLRAEDTAVYYCALLPKRGPWFDYWGQGTLVTVSS

ND50, MRC-5 cell-based assay (IL-8 release); sample DOM1h-131-204 (230307CE) (TNFR1 on MRC-5 cells): 1.89 nM
B2: DOM1h-131-204 (protein, from a related filing)
VH: B1 VH with L5S, V54D, K101N

ND50, MRC-5 cell-based assay (IL-8 release); sample DOM1h-131-203 (230307CE) (TNFR1 on MRC-5 cells): 2.28 nM
B3: DOM1h-131-203 (protein, from a related filing)
VH: B1 VH with L5W, V54D, F106I

output phage titre [1]: 3.84e+08 | output phage titre [2]: 2.16e+09 | output phage titre [3]: 6.6e+09 | output phage titre [4]: 7.8e+09 | output phage titre [5]: 7.2e+09 | output phage titre [6]: 1.8e+10 | IC50 (IL-1R1): 0.28 nM | output phage titre [7]: 2.04e+06 | output phage titre [8]: 7.2e+09 | output phage titre [9]: 7.2e+09
B4: DOM4-130-54 (protein, from a related filing)
VL: DIQMTQSPSSLSASVGDRVTITCRASQDIYLNLDWYQQKPGKAPKLLINFGSELQSGVPSRFSGSGYGTDFTLTISSLQPEDFATYYCQPSFYFPYTFGQGTKVEIKR

IC50 (IL-1R1): 0.254 nM
B5: DOM4-130-202 (protein, from a related filing)
VL: B4 VL with T22S, N49S, F83S, F94Y

IC50 (IL-1R1): 0.257 nM
B6: DOM4-130-201 (protein, from a related filing)
VL: B4 VL with N49K, S77N, R108W

output phage titre [10]: 3e+08 | Kd [11]: 23.6 nM | output phage titre [12]: 10000 | output phage titre [13]: 2.4e+08 | output phage titre [14]: 7e+07 | output phage titre [15]: 1.1e+07 | OD450 [16]: < 0.404 | output phage titre [17]: 100000 | EC50 [18]: 10.2 nM
B7: DOM15-10 (protein, from a related filing)
VL: DIQMTQSPSSLSASVGDRVTITCRASQWIGPELSWYQQKPGKAPKLLIYHTSILQSGVPSRFSGSGSGTDFTLTISSLQPEDFATYYCQQYMFQPRTFGQGTKVEIRR

Kd [11]: 14.6 nM | EC50 [18]: 3.58 nM
B8: DOM15-10-11 (protein, from a related filing)
VL: B7 VL with S34R, R96M, R108G
